Legend:
[1] = molecular target: T1, hOrai1-mOrai1 ECL2 chimeric protein (human/mouse chimera, UniProt Q96D31 1-301); experiment: FACS, 293EBNA; design: concentration or dose not given beside the values
T1 construct: human Orai1 with mouse ECL2; also called Ch
Description: (§1) FIG. 17A-D illustrates the results of FACS analysis showing binding to the indicated mOrai1-hOrai1 ECL2 chimeric mutants expressed on the surface of HEK-293-EBNA cells. Transfected cells were stained first with recombinant monoclonal antibodies then counter-stained with a secondary phycoerythrin-labeled goat (“Gt”) anti-human (“Hu”) IgG F(ab′)₂ antibody fragment and visualized using FACS.
(§2) Representative results of FACS analysis of binding to the mutant hOrai1-mOrai1 ECL2 chimera described above by exemplary anti-hOrai1 antibodies of the present invention are shown in FIG. 17A-D, Table 10A and Table 10B below. Table 10A (Campaign 1) and Table 10B (Campaign 2) show the gain in binding ability of exemplary monoclonal antibodies to hOrai 1-mOrai 1 ECL2 chimera mutants as determined by FACS.

[2] = molecular target: T2, hOrai1-mOrai1 ECL2 (…) protein (human/mouse chimera, UniProt Q96D31 1-301); experiment: FACS, 293EBNA; design: concentration or dose not given beside the values
T2 construct: also called Ch
Description: as §1, §2

[3] = molecular target: T3, hOrai1-mOrai1 ECL2 (PASGAA) protein (human/mouse chimera, UniProt Q96D31 1-301); experiment: FACS, 293EBNA; design: concentration or dose not given beside the values
T3 construct: also called Ch
Description: as §1, §2

[4] = molecular target: T4, hOrai1-mOrai1 ECL2 (AANVST) protein (human/mouse chimera, UniProt Q96D31 1-301); experiment: FACS, 293EBNA; design: concentration or dose not given beside the values
T4 construct: also called Ch
Description: as §1, §2

[5] = molecular target: T5, hOrai1-mOrai1 ECL2 (GAA) protein (human/mouse chimera, UniProt Q96D31 1-301); experiment: FACS, 293EBNA; design: concentration or dose not given beside the values
T5 construct: also called Ch
Description: as §1, §2

[6] = molecular target: T6, hOrai1-mOrai1 ECL2 (VST) protein (human/mouse chimera, UniProt Q96D31 1-301); experiment: FACS, 293EBNA; design: concentration or dose not given beside the values
T6 construct: also called Ch
Description: as §1, §2

[7] = molecular target: T1, hOrai1-mOrai1 ECL2 chimeric protein; experiment: FACS, 293EBNA; design: concentration or dose not given beside the values; remark: listed apart in the source
Description: (§3) FIG. 16A-D illustrates the results of FACS analysis showing binding to the indicated mOrai1-hOrai1 ECL2 chimeric mutants expressed on the surface of HEK-293-EBNA cells. Transfected cells were stained first with recombinant monoclonal antibodies then counter-stained with a secondary phycoerythrin-labeled goat (“Gt”) anti-human (“Hu”) IgG F(ab′)₂ antibody fragment and visualized using FACS. In FIG. 16B and FIG. 16D, The values of Relative Fluorescence Intensity as Percent of Control (RFI-POC) are calculated from the relative fluorescence intensity geometric mean (Geo Mean). The geometric mean is an average calculated by multiplying a series of numbers and taking the nth root where n is the number of numbers in the series. It is a statistical average of a set of transformed numbers often used to represent a central tendency in a highly variable data set that minimizes the effects of extreme values.
(§4) Table 11A and Table 11B feature a schematic representation of the POC data from FIG. 16B and FIG. 16D, respectively, where the binding results are recorded as (+++) denoting binding POC from 40% to 100%, (++) for POC of 5% to less than 40%, (+) for POC from 1% to less than 5% and (−) as lack of binding with POC less than 1%.

[8] = molecular target: T7, mOrai1-hOrai1 ECL2 (…) protein (human/mouse chimera, UniProt Q8BWG9 1-304 (mouse entry)); experiment: FACS, 293EBNA; design: concentration or dose not given beside the values
T7 construct: also called Ch
Description: as §3, §4
T7 sequence (Q8BWG9 other isoform, or with tags, fused parts or gaps): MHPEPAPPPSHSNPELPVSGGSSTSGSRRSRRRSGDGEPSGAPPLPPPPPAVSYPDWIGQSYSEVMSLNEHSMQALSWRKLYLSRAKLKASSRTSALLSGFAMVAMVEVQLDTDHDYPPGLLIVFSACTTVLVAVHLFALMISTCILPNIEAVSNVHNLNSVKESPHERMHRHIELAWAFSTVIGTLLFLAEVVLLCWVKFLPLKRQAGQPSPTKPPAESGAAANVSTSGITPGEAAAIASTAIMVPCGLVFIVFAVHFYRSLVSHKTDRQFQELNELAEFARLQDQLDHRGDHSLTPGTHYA

[9] = molecular target: T8, mOrai1-hOrai1 ECL2 (SPTKPPAE) protein (human/mouse chimera, UniProt Q8BWG9 1-304 (mouse entry)); experiment: FACS, 293EBNA; design: concentration or dose not given beside the values
T8 construct: also called Ch
Description: as §3, §4

[10] = molecular target: T9, mOrai1-hOrai1 ECL2 (KPPAE) protein (human/mouse chimera, UniProt Q8BWG9 1-304 (mouse entry)); experiment: FACS, 293EBNA; design: concentration or dose not given beside the values
T9 construct: also called Ch
Description: as §3, §4

[11] = molecular target: T10, mOrai1-hOrai1 ECL2 (…) protein (human/mouse chimera, UniProt Q8BWG9 1-304 (mouse entry)); experiment: FACS, 293EBNA; design: concentration or dose not given beside the values; remark: listed apart in the source
T10 construct: also called Ch
Description: as §3, §4
T10 sequence (Q8BWG9 other isoform, or with tags, fused parts or gaps): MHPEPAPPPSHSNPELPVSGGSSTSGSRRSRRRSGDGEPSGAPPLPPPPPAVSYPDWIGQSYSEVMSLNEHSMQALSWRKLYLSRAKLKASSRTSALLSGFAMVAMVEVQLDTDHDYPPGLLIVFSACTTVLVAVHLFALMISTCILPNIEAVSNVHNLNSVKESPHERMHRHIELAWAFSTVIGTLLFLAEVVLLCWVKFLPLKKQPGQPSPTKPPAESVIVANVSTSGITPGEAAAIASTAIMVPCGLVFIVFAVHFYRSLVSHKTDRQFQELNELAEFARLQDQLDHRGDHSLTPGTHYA

[12] = molecular target: T11, mOrai1-hOrai1 ECL2 (…) protein (human/mouse chimera, UniProt Q8BWG9 1-304 (mouse entry)); experiment: FACS, 293EBNA; design: concentration or dose not given beside the values; remark: listed apart in the source
T11 construct: also called Ch
Description: as §3, §4
T11 sequence (Q8BWG9 other isoform, or with tags, fused parts or gaps): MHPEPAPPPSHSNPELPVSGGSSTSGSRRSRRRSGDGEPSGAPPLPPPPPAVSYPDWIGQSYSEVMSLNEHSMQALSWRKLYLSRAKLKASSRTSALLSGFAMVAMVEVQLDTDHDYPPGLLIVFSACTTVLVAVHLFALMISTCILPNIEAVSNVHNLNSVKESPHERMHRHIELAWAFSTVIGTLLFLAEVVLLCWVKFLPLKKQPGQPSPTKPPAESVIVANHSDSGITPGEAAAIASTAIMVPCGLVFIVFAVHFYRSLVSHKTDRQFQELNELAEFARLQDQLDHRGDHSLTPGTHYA

[13] = molecular target: T7, mOrai1-hOrai1 ECL2 (…) protein; experiment: flow cytometry on HEK-293 cells transfected with the chimera (loss of binding experiment)
[14] = molecular target: T8, mOrai1-hOrai1 ECL2 (SPTKPPAE) protein; experiment: as above
[15] = molecular target: T9, mOrai1-hOrai1 ECL2 (KPPAE) protein; experiment: as above
[16] = molecular target: T10, mOrai1-hOrai1 ECL2 (…) protein; experiment: as above; remark: listed apart in the source
[17] = molecular target: T11, mOrai1-hOrai1 ECL2 (…) protein; experiment: as above; remark: listed apart in the source
[18] = molecular target: T12, mOrai1-hOrai1 ECL2 (…) protein (human/mouse chimera, UniProt Q8BWG9 1-304 (mouse entry)); experiment: FACS, 293EBNA; design: concentration or dose not given beside the values; remark: listed apart in the source
T12 construct: also called Ch
Description: as §3, §4
T12 sequence (Q8BWG9 other isoform, or with tags, fused parts or gaps): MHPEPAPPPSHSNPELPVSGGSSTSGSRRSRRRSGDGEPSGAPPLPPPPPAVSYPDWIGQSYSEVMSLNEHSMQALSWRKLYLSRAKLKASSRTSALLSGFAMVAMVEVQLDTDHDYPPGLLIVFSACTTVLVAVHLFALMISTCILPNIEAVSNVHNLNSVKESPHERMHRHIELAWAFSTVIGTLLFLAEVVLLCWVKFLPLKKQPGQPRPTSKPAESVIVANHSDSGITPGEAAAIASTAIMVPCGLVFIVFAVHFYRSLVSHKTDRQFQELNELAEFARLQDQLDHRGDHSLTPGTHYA

[19] = molecular target: T13, mOrai1-hOrai1 ECL2 (AESVIV) protein (human/mouse chimera, UniProt Q8BWG9 1-304 (mouse entry)); experiment: FACS, 293EBNA; design: concentration or dose not given beside the values
T13 construct: also called Ch
Description: as §3, §4

[20] = molecular target: T12, mOrai1-hOrai1 ECL2 (…) protein; experiment: flow cytometry on HEK-293 cells transfected with the chimera (loss of binding experiment); remark: listed apart in the source
[21] = molecular target: T13, mOrai1-hOrai1 ECL2 (AESVIV) protein; experiment: as above

T9 sequence (Q8BWG9 other isoform, or with tags, fused parts or gaps): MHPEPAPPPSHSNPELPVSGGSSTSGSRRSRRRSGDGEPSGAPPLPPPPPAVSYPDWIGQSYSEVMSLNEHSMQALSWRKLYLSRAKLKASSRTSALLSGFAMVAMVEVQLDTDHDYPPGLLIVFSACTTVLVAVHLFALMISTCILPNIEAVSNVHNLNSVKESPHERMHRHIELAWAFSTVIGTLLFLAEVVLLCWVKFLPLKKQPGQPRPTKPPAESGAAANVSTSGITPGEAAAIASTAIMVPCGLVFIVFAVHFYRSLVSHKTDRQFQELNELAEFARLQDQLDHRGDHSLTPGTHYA
T8 sequence (Q8BWG9 other isoform, or with tags, fused parts or gaps): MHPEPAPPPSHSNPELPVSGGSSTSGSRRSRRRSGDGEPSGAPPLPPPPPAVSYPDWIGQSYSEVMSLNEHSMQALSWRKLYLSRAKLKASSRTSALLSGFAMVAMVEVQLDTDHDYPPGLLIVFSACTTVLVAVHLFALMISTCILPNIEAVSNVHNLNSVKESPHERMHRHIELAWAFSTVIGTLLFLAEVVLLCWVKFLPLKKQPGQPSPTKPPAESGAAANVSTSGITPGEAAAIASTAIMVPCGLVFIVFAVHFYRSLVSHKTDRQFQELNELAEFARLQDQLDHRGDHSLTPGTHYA
T1 sequence (Q96D31 other isoform, or with tags, fused parts or gaps mutant): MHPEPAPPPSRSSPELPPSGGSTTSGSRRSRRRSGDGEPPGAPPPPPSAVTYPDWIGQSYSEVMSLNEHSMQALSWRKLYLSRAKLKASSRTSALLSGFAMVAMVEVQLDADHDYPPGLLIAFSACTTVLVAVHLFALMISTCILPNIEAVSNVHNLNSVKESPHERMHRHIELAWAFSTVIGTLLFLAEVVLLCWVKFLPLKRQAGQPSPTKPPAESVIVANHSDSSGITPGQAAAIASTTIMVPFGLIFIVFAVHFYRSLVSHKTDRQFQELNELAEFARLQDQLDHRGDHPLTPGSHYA
T13 sequence (Q8BWG9 other isoform, or with tags, fused parts or gaps): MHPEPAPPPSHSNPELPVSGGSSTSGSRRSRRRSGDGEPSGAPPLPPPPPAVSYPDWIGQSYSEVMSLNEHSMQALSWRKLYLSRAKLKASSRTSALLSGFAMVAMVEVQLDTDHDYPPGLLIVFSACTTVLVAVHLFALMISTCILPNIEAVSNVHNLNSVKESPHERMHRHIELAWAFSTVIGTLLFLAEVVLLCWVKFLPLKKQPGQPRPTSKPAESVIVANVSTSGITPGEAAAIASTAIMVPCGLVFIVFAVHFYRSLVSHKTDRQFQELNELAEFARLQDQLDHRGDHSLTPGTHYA
T3 sequence (Q96D31 other isoform, or with tags, fused parts or gaps): as the sequence (Q96D31 other isoform, or with tags, fused parts or gaps mutant) above, with A216P, E217A, V219G, I220A, V221A counted along it
T2 sequence (Q96D31 other isoform, or with tags, fused parts or gaps): as the sequence (Q96D31 other isoform, or with tags, fused parts or gaps mutant) above, with A216P, E217A, V219G, I220A, V221A, H224V, D226T counted along it
T4 sequence (Q96D31 other isoform, or with tags, fused parts or gaps): as the sequence (Q96D31 other isoform, or with tags, fused parts or gaps mutant) above, with V221A, H224V, D226T counted along it
T6 sequence (Q96D31 other isoform, or with tags, fused parts or gaps): as the sequence (Q96D31 other isoform, or with tags, fused parts or gaps mutant) above, with H224V, D226T counted along it
T5 sequence (Q96D31 other isoform, or with tags, fused parts or gaps): as the sequence (Q96D31 other isoform, or with tags, fused parts or gaps mutant) above, with V219G, I220A, V221A counted along it

| percent of control (POC) of FACS Geo Mean [1] | percent of control (POC) of FACS Geo Mean [2] | percent of control (POC) of FACS Geo Mean [3] | percent of control (POC) of FACS Geo Mean [4] | percent of control (POC) of FACS Geo Mean [5] | percent of control (POC) of FACS Geo Mean [6] | POC (percent of control, FACS Geo Mean relative to Ch. 1) [7] | POC (percent of control, FACS Geo Mean relative to binding to Ch. 1) [7] | POC (percent of control, FACS Geo Mean relative to Ch. 1) [8] | POC (percent of control, FACS Geo Mean relative to binding to Ch. 1) [8] | POC (percent of control, FACS Geo Mean relative to Ch. 1) [9] | POC (percent of control, FACS Geo Mean relative to binding to Ch. 1) [9] | POC (percent of control, FACS Geo Mean relative to Ch. 1) [10] | POC (percent of control, FACS Geo Mean relative to Ch. 1) [11] | POC (percent of control, FACS Geo Mean relative to Ch. 1) [12] | binding result [13] | binding result [14] | binding result [15] | binding result [16] | binding result [17] | Binder | further results |
| --- | --- | --- | --- | --- | --- | --- | --- | --- | --- | --- | --- | --- | --- | --- | --- | --- | --- | --- | --- | --- | --- |
| < 1% | < 1% | < 1% | < 1% | < 1% | < 1% | < 1% | < 1% | < 1% | < 1% | < 1% | < 1% | < 1% | < 1% | < 1% | no binding | no binding | no binding | no binding | no binding | mAb 2D2.1 (antibody, human IgG2, lambda, V domains shown, fully human IgG2 lambda, Campaign 1; also called mAb 2D.1) VH: QVQLQQWGAGLLKPSETLSLTCAVYGGSFSGYYWSWIRQPPGKGLEWIGEIDHSGRINYNPALKSRLTISVDTSKNQFSLKLSSVTAADTAVYYCARAGSGGYEDWFDPWGQGTLVTVSS VL: QSVLTQPPSVSGAPGQRVTISCTGSSSNIGAGYNVHWYQQFPRTDPKLLIYVYNIRPSGVPDRFSGSRSGTSASLAITGLQTEDEADYYCQSYDSSLSGVVFGGGTKLTVLG | POC (percent of control, FACS Geo Mean relative to binding to Ch. 1) [10]: < 1%; POC (percent of control, FACS Geo Mean relative to binding to Ch. 1) [11]: < 1%; POC (percent of control, FACS Geo Mean relative to binding to Ch. 1) [12]: < 1% |
|  |  |  |  |  |  | < 1% |  | < 1% |  | < 1% |  | < 1% | < 1% | < 1% | no binding | no binding | no binding | no binding | no binding | mAb 2B7.1 (antibody, human IgG2, V domains shown, fully human, Campaign 1) VH: QVQLQQWGAGLLKPSETLSLTCAVYGGSFSGYYWSWIRQPPGKGLEWIGEIDHSGSTNYNPALKSRLTISVDTSKNQFSLKLSSVTAADTAVYYCARAGSGGYEDWFDPWGQGTLVTVSS VL: QSVLTQPPSVSGAPGQRVTISCTGSSSNIGTGYNVHWYQQFPRTDPKLLIYVYNIRPSGVPDRFSGSRSGTSASLAITGLQTEDEADYYCQSYDSSLSGVVFGGGTKLTVLG |  |
|  |  |  |  |  |  | < 1% |  | < 1% |  | < 1% |  | < 1% | < 1% | < 1% | no binding | no binding | no binding | no binding | no binding | mAb 2C1.1 (antibody, human IgG2, lambda, V domains shown, fully human IgG2 lambda, Campaign 1; tested hybridoma-purified and recombinant; also called anti-hOrai1 mAb 2C1.1) VH: QVQLQQWGAGLLKPSETLSLTCAVYGGSFSGYYWSWIRQPPGKGLEWIGEIDHSGSTNYNPALKSRLTISVDTSKNQFSLKLSSVTAADTAVYYCARAGSGGYEDWFDPWGQGTLVTVSS VL: QSVLTQPPSVSGAPGQRVTISCTGSSSNIGAGYNVHWYQQFPRTDPKLLIYVYNIRPSGVPDRFSGSRSGTSASLAITGLQTEDEADYYCQSYDSSLSGVVFGGGTKLTVLG |  |
| < 1% | < 1% | < 1% | < 1% | < 1% | < 1% |  | < 1% |  | < 1% |  | < 1% |  |  |  | no binding | no binding | no binding | no binding | no binding | mAb 5B1.1 (antibody, human IgG2, lambda, V domains shown, fully human IgG2 lambda, Campaign 2; also called mAb 5Bl1.1) VH: QVQLVQSGAEVKKPGASVKVSCKASGYTFTDYYINWVRQAPGQGLEWMGWINPNSGGSSYAQKFQGRVTMTRDTSISTAHMELIRLRSDDTAVYYCARERGGIEDWFDPWGQGTLVTVSS VL: QSVLTQPPSVSGAPGQRVTISCTGSSSNIGAGYDVHWYQQLPGTAPKLLIYGNSNRPSGVPDRFSGSKSGTSASLAITKFQAEDEAVYYCQSYGSGLSGVVFGGGTKLTVLG | POC (percent of control, FACS Geo Mean relative to binding to Ch. 1) [10]: < 1%; POC (percent of control, FACS Geo Mean relative to binding to Ch. 1) [11]: < 1%; POC (percent of control, FACS Geo Mean relative to binding to Ch. 1) [12]: < 1% |
|  |  |  |  |  |  | < 1% |  | < 1% |  | < 1% |  | < 1% | < 1% | < 1% | no binding | no binding | no binding | no binding | no binding | mAb 2B4.1 (antibody, human IgG2, lambda, V domains shown) VH: QVQLVQSGAEVKKPGASVKVSCKASGYTFTDYYMHWVRQAPGQGLEWMGWINPNSGGTNYVQKFQDRVTMTRDTSITTAYMELTRLRSDDTAVYYCAREEGDYGMDVWGQGTTVTVSS VL: QSVLTQPPSVSGAPGQRVTISCTGSNSNIGTGYDVHWYQKLPGTAPRLLIYSHFNRPSGVPDRFSGSTSGTSASLAITGLQAEDEADYYCQSYDSSLSGSVFGGGTKLTVLG | POC (percent of control, FACS Geo Mean relative to Ch. 1) [18]: < 1%; POC (percent of control, FACS Geo Mean relative to Ch. 1) [19]: < 1%; binding result [20]: no binding; binding result [21]: no binding |
